Data from patent US20190269666A1, “COMBINATION THERAPY WITH MERESTINIB AND ANTI-PD-L1 OR ANTI-PD-1 INHIBITORS FOR USE IN THE TREATMENT OF CANCER” (Eli Lilly and Company, priority 2016, published 2019).

Assays:
[1] = target: T1, human PD-L1 (Homo sapiens, UniProt Q9NZQ7); test: ELISA binding to recombinant PD-L1; design: purchased R&D Systems; conditions: after 4 weeks at 4° C., 25° C. and 40° C.
Protocol: The ability for antibodies of the present invention to bind human PD-L1 can be measured with an ELISA assay. For the PD-L1 binding assay, a 96-well plate (NUNC®) is coated with human PD-L1-Fc (R&D Systems) overnight at 4° C. Wells are blocked for 2 hours with blocking buffer (PBS containing 5% nonfat dry milk). Wells are washed three times with PBS containing 0.1% TWEEN®-20. Anti-PD-L1 antibody or control IgG (100 μL) is then added and incubated at room temperature for 1 hour. After washing, the plate is incubated with 100 μL of goat anti-human IgG F(ab′)2-HRP conjugate (Jackson Immuno Research) at room temperature for 1 hour. The plates are washed and then incubated with 100 μL of 3,3′, 5,5′-tetra-methylbenzidine. The absorbance at 450 nm is read on a microplate reader. The half maximal effective concentration (EC50) is calculated using GraphPad Prism 6 software.
Target sequence in this assay (Q9NZQ7 with tags, fused parts or gaps limits assumed): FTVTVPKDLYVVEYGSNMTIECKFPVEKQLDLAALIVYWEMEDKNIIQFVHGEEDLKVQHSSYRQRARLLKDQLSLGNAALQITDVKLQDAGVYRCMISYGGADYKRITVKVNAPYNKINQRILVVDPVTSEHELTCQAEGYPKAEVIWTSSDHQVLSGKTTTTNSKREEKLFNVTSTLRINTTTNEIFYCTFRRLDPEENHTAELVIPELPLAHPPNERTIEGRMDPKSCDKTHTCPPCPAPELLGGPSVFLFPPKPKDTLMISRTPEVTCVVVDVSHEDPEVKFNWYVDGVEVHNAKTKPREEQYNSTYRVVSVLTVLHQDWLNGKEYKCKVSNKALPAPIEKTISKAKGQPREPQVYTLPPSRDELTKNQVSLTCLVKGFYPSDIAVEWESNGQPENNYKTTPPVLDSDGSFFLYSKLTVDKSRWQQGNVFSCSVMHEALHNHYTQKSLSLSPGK

[2] = system: Cyno PD-L1; test: Binding kinetics and affinity by surface plasmon resonance (Biacore); design: species or system cynomolgus monkey; conditions: SPR, analysis at 37° C.
Protocol: (§1) The kinetics and equilibrium dissociation constant (KD) for human PD-L1 is determined for antibodies of the present invention using surface plasmon resonance (Biacore).
(§2) Immobilization of antibodies of the present invention as ligand on to sensor chip surface is performed at 25° C. Soluble human PD-L1-Fc fusion protein (and in some cases, cynomolgus monkey PD-L1-Fc fusion proteins) is injected as analyte at concentrations ranging from 0.0123 nM-9 nM. The analysis is performed at 37° C. The contact time for each sample is 180 seconds at 30 μL/minute. The dissociation time was 240-1500 seconds. The immobilized surface is regenerated for 18 seconds with 0.95 M NaCl/25 mM NaOH at 30 μL/minute, and then stabilized for 30 seconds. Binding kinetics are analyzed using the Biacore T200 Evaluation software (Version 3.0). Data are referenced to a blank flow cell, and the data are fit to a 1:1 binding model.

[3] = target: T1, human PD-L1; test: as above; design: Soluble human PD-L1-Fc fusion protein; conditions: SPR, analysis at 37° C.
Protocol: as §1, §2
Target sequence in this assay (Q9NZQ7 19-238 limits assumed): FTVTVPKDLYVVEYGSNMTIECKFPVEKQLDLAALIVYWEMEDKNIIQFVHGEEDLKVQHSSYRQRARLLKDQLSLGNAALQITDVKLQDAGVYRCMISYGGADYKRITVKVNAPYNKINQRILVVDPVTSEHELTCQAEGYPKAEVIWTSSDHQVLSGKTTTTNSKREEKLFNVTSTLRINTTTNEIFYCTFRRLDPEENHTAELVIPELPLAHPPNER

[4] = target: PD-L1 binding to PD-1 (Homo sapiens, UniProt Q9NZQ7); test: ELISA blocking of the interaction of PD-L1 with PD-1; conditions: after 4 weeks at 4° C., 25° C. and 40° C.
Protocol: The ability for antibodies of the present invention to block PD-L1 binding to PD-1 can be measured in an ELISA assay. For the receptor-ligand blocking assay, varying amounts (of anti-PD-L1 antibody or control IgG are mixed with a fixed amount of biotinylated PD-L1-Fc fusion protein (100 ng/well) and incubated at room temperature for 1 hour. The mixture is transferred to 96-well plates pre-coated with PD-1-Fc (1 μg/ml) and then incubated at room temperature for an additional 1 hour. After washing, streptavidin HRP conjugate is added, and the absorbance at 450 nm is read. IC50 represents the antibody concentration required for 50% inhibition of PD-L1 binding to PD-1.

PD-L1 binding to PD-1, sequence (Q9NZQ7 19-239 limits assumed): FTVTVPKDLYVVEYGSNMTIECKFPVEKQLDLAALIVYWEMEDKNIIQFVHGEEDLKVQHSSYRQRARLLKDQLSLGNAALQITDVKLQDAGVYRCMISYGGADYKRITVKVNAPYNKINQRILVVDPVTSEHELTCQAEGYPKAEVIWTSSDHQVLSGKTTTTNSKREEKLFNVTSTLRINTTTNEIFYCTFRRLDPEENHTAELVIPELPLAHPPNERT

- Koff [2]: 0.000184 s⁻¹
- Kon [2]: 1.51e+06 M⁻¹ s⁻¹
- Koff [3]: 0.000114 s⁻¹
- Kon [3]: 1.4e+06 M⁻¹ s⁻¹
Substance: LY3300054: IgG1 variant antibody lacking Fc effector function, that binds human PD-L1; HC SEQ ID NO: 10, LC SEQ ID NO: 11
- binding activities after storage [1]: retains its binding activities
- blocking activities after storage [4]: retains its blocking activities
